Test results as given in patent US6022951A (priority 1996, dated 2000).

Assay: stability against denaturation by guanidine hydrochloride (remaining biotin-binding ability)
Type: physicochemical
Protocol: Biotin-binding ability was used as an estimate of the structural stability.
Structural stability of core streptavidins against denaturation was estimated from the biotin-binding ability after incubation in guanidine hydrochloride solutions at pH 7.4 and pH 1.5. […] Then, 1.4 μl (680 pmol) of D-[carbonyl-^14 C]biotin was added to each solution. The mixture was incubated at 22° C. for 10 minutes and streptavidin-biotin complexes were separated from free, unbound biotin using PD-10 columns which had been equilibrated with the same guanidine hydrochloride solution (R. -D. Wei, Methods Enzymol. 18A:424-27, 1980).
All of the three core streptavidins bound more than 0.96 molecules of biotin per subunit at pH 7.4 without guanidine hydrochloride and the biotin-binding ability remaining in guanidine hydrochloride is indicated in percent.

[1] = 4 M guanidine hydrochloride, pH 1.5
[2] = 6 M guanidine hydrochloride, pH 7.4

With “full-length streptavidin: full length streptavidin, monomer of 159 amino acids” the “biotin bound per subunit in guanidine hydrochloride” value [1] was “about 0.826 molecules biotin per subunit”, the “reduction (loss) of biotin-binding ability” value [1] was roughly 15% and the “biotin bound per subunit in guanidine hydrochloride” value [2] was “about 0.768 molecules biotin per subunit”. The “reduction in biotin-binding ability” value [2] was “about 20%”.
